What was measured:
[1] = target: phosphorylated pS674 peptide of UHRF1 (human (RefSeq NP_037414.3)); test: SPR; BIAcore; biotinylated peptides on a streptavidin chip (about 250 RU); GST-BRCA1-BRCT as analyte, 39 nM to 2.5 μM (legend: 17 nM to 2.5 μM), 30 μl min^-1; 150 mM NaCl, 0.005% Polysorbate 20, 10 mM HEPES pH 7.4, 1 mM PMSF
BRCA1 = BRCA1 (UniProt P38398); test: co-immunoprecipitation; settings: reference: wild type; sites S674
BRCA1 BRCT domain = BRCA1 BRCT domain (UniProt P38398); test: far-Western, GST-BRCT overlay on His-UHRF1; settings: reference: kinase-treated His-UHRF1 WT; sites S674

GST-BRCT (wild type) domain of BRCA1 (domain or fragment)
Kd [1]: 356 nM

UHRF1 (from UniProt Q96T88-2) S674A
binding against the reference (BRCA1): weaker

UHRF1 (from UniProt Q96T88-2) kinase-treated His-UHRF1 S674A
binding against the reference (BRCA1 BRCT domain): lost

Reference: article PMC4728409
